B1: Refmab #6 (antibody, V domains shown)
VH: QVQLQQPGAEVVKPGASVKMSCKASGYTFTSYYIHWIKQTPGQGLEWVGVIYPGNDDISYNQKFQGKATLTADKSSTTAYMQLSSLTSEDSAVYYCAREVRLRYFDVWGQGTTVTVSS
VL: EIVLTQSPGSLAVSPGERVTMSCKSSQSVFFSSSQKNYLAWYQQIPGQSPRLLIYWASTRESGVPDRFTGSGSGTDFTLTISSVQPEDLAIYYCHQYLSSRTFGQGTKLEIK
notes: The alanine scan used IgG or Fab
B2: Refmab #6 (antibody, human IgG1, V domains shown)
VH: QVQLQQPGAEVVKPGASVKMSCKASGYTFTSYYIHWIKQTPGQGLEWVGVIYPGNDDISYNQKFQGKATLTADKSSTTAYMQLSSLTSEDSAVYYCAREVRLRYFDVWGQGTTVTVSS
VL: EIVLTQSPGSLAVSPGERVTMSCKSSQSVFFSSSQKNYLAWYQQIPGQSPRLLIYWASTRESGVPDRFTGSGSGTDFTLTISSVQPEDLAIYYCHQYLSSRTFGQGTKLEIK
notes: tested in IgG format
B3: Refmab #5 (antibody, V domains shown)
VH: QVQLVQSGAEVKKPGASVKVSCKASGYTFTNYDINWVRQAPGQGLEWIGWIYPGDGSTKYNEKFKAKATLTADTSTSTAYMELRSLRSDDTAVYYCASGYEDAMDYWGQGTTVTVSS
VL: DIQMTQSPSSLSASVGDRVTINCKASQDINSYLSWFQQKPGKAPKTLIYRANRLVDGVPSRFSGSGSGQDYTLTISSLQPEDFATYYCLQYDEFPLTFGGGTKVEIK
notes: as for B1
B4: Refmab #5 (antibody, human IgG1, V domains shown)
VH: QVQLVQSGAEVKKPGASVKVSCKASGYTFTNYDINWVRQAPGQGLEWIGWIYPGDGSTKYNEKFKAKATLTADTSTSTAYMELRSLRSDDTAVYYCASGYEDAMDYWGQGTTVTVSS
VL: DIQMTQSPSSLSASVGDRVTINCKASQDINSYLSWFQQKPGKAPKTLIYRANRLVDGVPSRFSGSGSGQDYTLTISSLQPEDFATYYCLQYDEFPLTFGGGTKVEIK
notes: tested in IgG format

Assays:
human CD33 H285A = human CD33 H285A (human, UniProt P20138 18-364); experiment: flow cytometry, HEK293-T, alanine scan;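 further: transiently transfected HEK293-T cells expressing single alanine mutants of human CD33 (alanine residues changed to serine), antibody binding fluorescence minus background, relative to wild type CD33, mean of duplicates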
Protocol: (§1) An alanine scan on human CD33 was performed to the determine the residues on CD33 that are involved in binding to the antibodies investigated. […] Briefly, a mutation library of CD33 was created by high-throughput, site-directed mutagenesis. Each residue was individually mutated to alanine, with alanine codons mutated to serine. The mutant library was arrayed in 384-well microplates and transiently transfected into HEK293-T. Following transfection, cells were incubated with the indicated antibodies (IgG or Fab) at concentrations pre-determined using an independent immunofluorescence titration curve on wild type CD33. […] Binding of each antibody to each mutant clone was determined in duplicates. For each point, background fluorescence was subtracted from the raw data, which were then normalized to antibody reactivity with wild type CD33.
(§2) Critical residues for antibody binding (outlined in dark grey) were residues whose mutations led to a binding of the test Abs of less than 20%. Additional secondary residues (outlined in light grey) were identified that led to a binding of the test Abs of between 20 and 40% as compared to the wild type CD33.

human CD33 K313A = human CD33 K313A (human, UniProt P20138 18-364); experiment: flow cytometry, HEK293-T, alanine scan;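 further: transiently transfected HEK293-T cells expressing single alanine mutants of human CD33 (alanine residues changed to serine), antibody binding fluorescence minus background, relative to wild type CD33, mean of duplicates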
Protocol: as §1, §2

human CD33 L275A = human CD33 L275A (human, UniProt P20138 18-364); experiment: flow cytometry, HEK293-T, alanine scan;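 further: transiently transfected HEK293-T cells expressing single alanine mutants of human CD33 (alanine residues changed to serine), antibody binding fluorescence minus background, relative to wild type CD33, mean of duplicates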
Protocol: as §1, §2

human CD33 A306S = human CD33 A306S (human, UniProt P20138 18-364); experiment: flow cytometry, HEK293-T, alanine scan;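 further: transiently transfected HEK293-T cells expressing single alanine mutants of human CD33 (alanine residues changed to serine), antibody binding fluorescence minus background, relative to wild type CD33, mean of duplicates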
Protocol: as §1, §2

human CD33 K283A = human CD33 K283A (human, UniProt P20138 18-364); experiment: flow cytometry, HEK293-T, alanine scan
Protocol: as §1, §2

human CD33 L273A = human CD33 L273A (human, UniProt P20138 18-364); experiment: flow cytometry, HEK293-T, alanine scan
Protocol: as §1, §2

human CD33 L338A = human CD33 L338A (human, UniProt P20138 18-364); experiment: flow cytometry, HEK293-T, alanine scan
Protocol: as §1, §2

human CD33 P308A = human CD33 P308A (human, UniProt P20138 18-364); experiment: flow cytometry, HEK293-T, alanine scan
Protocol: as §1, §2

human CD33 A329S = human CD33 A329S (human, UniProt P20138 18-364); experiment: flow cytometry, HEK293-T, alanine scan
Protocol: as §1, §2

human CD33 A293S = human CD33 A293S (human, UniProt P20138 18-364); experiment: flow cytometry, HEK293-T, alanine scan
Protocol: as §1, §2

human CD33 T331A = human CD33 T331A (human, UniProt P20138 18-364); experiment: flow cytometry, HEK293-T, alanine scan
Protocol: as §1, §2

human CD33 A341S = human CD33 A341S (human, UniProt P20138 18-364); experiment: flow cytometry, HEK293-T, alanine scan
Protocol: as §1, §2

human CD33 H339A = human CD33 H339A (human, UniProt P20138 18-364); experiment: flow cytometry, HEK293-T, alanine scan
Protocol: as §1, §2

human CD33 L343A = human CD33 L343A (human, UniProt P20138 18-364); experiment: flow cytometry, HEK293-T, alanine scan
Protocol: as §1, §2

human CD33 H310A = human CD33 H310A (human, UniProt P20138 18-364); experiment: flow cytometry, HEK293-T, alanine scan
Protocol: as §1, §2

human CD33 P330A = human CD33 P330A (human, UniProt P20138 18-364); experiment: flow cytometry, HEK293-T, alanine scan
Protocol: as §1, §2

human CD33 T284A = human CD33 T284A (human, UniProt P20138 18-364); experiment: flow cytometry, HEK293-T, alanine scan
Protocol: as §1, §2

human CD33 H317A = human CD33 H317A (human, UniProt P20138 18-364); experiment: flow cytometry, HEK293-T, alanine scan
Protocol: as §1, §2

human CD33 L271A = human CD33 L271A (human, UniProt P20138 18-364); experiment: flow cytometry, HEK293-T, alanine scan
Protocol: as §1, §2

human CD33 T320A = human CD33 T320A (human, UniProt P20138 18-364); experiment: flow cytometry, HEK293-T, alanine scan
Protocol: as §1, §2

human CD33 E337A = human CD33 E337A (human, UniProt P20138 18-364); experiment: flow cytometry, HEK293-T, alanine scan
Protocol: as §1, §2

human CD33 H300A = human CD33 H300A (human, UniProt P20138 18-364); experiment: flow cytometry, HEK293-T, alanine scan
Protocol: as §1, §2

human CD33 L316A = human CD33 L316A (human, UniProt P20138 18-364); experiment: flow cytometry, HEK293-T, alanine scan
Protocol: as §1, §2

human CD33 D298A = human CD33 D298A (human, UniProt P20138 18-364); experiment: flow cytometry, HEK293-T, alanine scan
Protocol: as §1, §2

human CD33 V294A = human CD33 V294A (human, UniProt P20138 18-364); experiment: flow cytometry, HEK293-T, alanine scan
Protocol: as §1, §2

human CD33 W22E = human CD33 W22E (human, UniProt P20138 18-364); experiment: flow cytometry, HEK293-T, IgG;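 further: CD33 point mutants transiently expressed, antibody binding measured by fluorescence in duplicate, background subtracted and scaled to binding on wild-type CD33 as 100%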
Protocol: as §1
(§3) Antibodies were screened for binding to the human CD33 variants in IgG format. […] For each mutation, background fluorescence was subtracted from the raw data, which were then normalized to antibody reactivity with wild-type CD33.

human CD33 V25L = human CD33 V25L (human, UniProt P20138 18-364); experiment: flow cytometry, HEK293-T, IgG;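 further: CD33 point mutants transiently expressed, antibody binding measured by fluorescence in duplicate, background subtracted and scaled to binding on wild-type CD33 as 100%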
Protocol: as §1, §3

human CD33 P19K = human CD33 P19K (human, UniProt P20138 18-364); experiment: flow cytometry, HEK293-T, IgG;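 further: CD33 point mutants transiently expressed, antibody binding measured by fluorescence in duplicate, background subtracted and scaled to binding on wild-type CD33 as 100%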
Protocol: as §1, §3

human CD33 F21I = human CD33 F21I (human, UniProt P20138 18-364); experiment: flow cytometry, HEK293-T, IgG;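 further: CD33 point mutants transiently expressed, antibody binding measured by fluorescence in duplicate, background subtracted and scaled to binding on wild-type CD33 as 100%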
Protocol: as §1, §3

human CD33 V25S = human CD33 V25S (human, UniProt P20138 18-364); experiment: flow cytometry, HEK293-T, IgG
Protocol: as §1, §3

human CD33 F21V = human CD33 F21V (human, UniProt P20138 18-364); experiment: flow cytometry, HEK293-T, IgG
Protocol: as §1, §3

human CD33 W22N = human CD33 W22N (human, UniProt P20138 18-364); experiment: flow cytometry, HEK293-T, IgG
Protocol: as §1, §3

human CD33 F21S = human CD33 F21S (human, UniProt P20138 18-364); experiment: flow cytometry, HEK293-T, IgG
Protocol: as §1, §3

human CD33 L23M = human CD33 L23M (human, UniProt P20138 18-364); experiment: flow cytometry, HEK293-T, IgG
Protocol: as §1, §3

human CD33 N20Q = human CD33 N20Q (human, UniProt P20138 18-364); experiment: flow cytometry, HEK293-T, IgG
Protocol: as §1, §3

human CD33 W22G = human CD33 W22G (human, UniProt P20138 18-364); experiment: flow cytometry, HEK293-T, IgG
Protocol: as §1, §3

Sequence of human CD33 H339A (P20138 18-364 H339A limits assumed): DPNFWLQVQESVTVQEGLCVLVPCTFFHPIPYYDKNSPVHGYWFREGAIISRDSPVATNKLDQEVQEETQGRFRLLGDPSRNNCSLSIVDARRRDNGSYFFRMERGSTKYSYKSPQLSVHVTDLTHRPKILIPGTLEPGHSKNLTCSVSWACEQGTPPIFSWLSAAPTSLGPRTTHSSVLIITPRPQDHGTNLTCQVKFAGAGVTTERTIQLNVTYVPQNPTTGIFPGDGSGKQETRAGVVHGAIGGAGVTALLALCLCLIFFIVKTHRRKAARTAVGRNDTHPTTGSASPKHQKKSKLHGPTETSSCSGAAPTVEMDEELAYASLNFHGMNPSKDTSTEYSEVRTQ
Sequence of human CD33 A293S (P20138 18-364 A293S limits assumed): as the sequence (P20138 18-364 H339A limits assumed) above, with A276S, A322H counted along it
Sequence of human CD33 V25S (P20138 18-364 V25S limits assumed): as the sequence (P20138 18-364 H339A limits assumed) above, with V8S, A322H counted along it
Sequence of human CD33 L275A (P20138 18-364 L275A limits assumed): as the sequence (P20138 18-364 H339A limits assumed) above, with L258A, A322H counted along it
Sequence of human CD33 H317A (P20138 18-364 H317A limits assumed): as the sequence (P20138 18-364 H339A limits assumed) above, with H300A, A322H counted along it
Sequence of human CD33 K283A (P20138 18-364 K283A limits assumed): as the sequence (P20138 18-364 H339A limits assumed) above, with K266A, A322H counted along it
Sequence of human CD33 H310A (P20138 18-364 H310A limits assumed): as the sequence (P20138 18-364 H339A limits assumed) above, with H293A, A322H counted along it
Sequence of human CD33 F21I (P20138 18-364 F21I limits assumed): as the sequence (P20138 18-364 H339A limits assumed) above, with F4I, A322H counted along it
Sequence of human CD33 A329S (P20138 18-364 A329S limits assumed): as the sequence (P20138 18-364 H339A limits assumed) above, with A312S, A322H counted along it
Sequence of human CD33 L343A (P20138 18-364 L343A limits assumed): as the sequence (P20138 18-364 H339A limits assumed) above, with A322H, L326A counted along it
Sequence of human CD33 P330A (P20138 18-364 P330A limits assumed): as the sequence (P20138 18-364 H339A limits assumed) above, with P313A, A322H counted along it
Sequence of human CD33 D298A (P20138 18-364 D298A limits assumed): as the sequence (P20138 18-364 H339A limits assumed) above, with D281A, A322H counted along it
Sequence of human CD33 L271A (P20138 18-364 L271A limits assumed): as the sequence (P20138 18-364 H339A limits assumed) above, with L254A, A322H counted along it
Sequence of human CD33 L23M (P20138 18-364 L23M limits assumed): as the sequence (P20138 18-364 H339A limits assumed) above, with L6M, A322H counted along it

Binder	Mean % WT Binding (human CD33 H285A) [% WT binding]	Mean % WT Binding (human CD33 K313A) [% WT binding]	Mean % WT Binding (human CD33 L275A) [% WT binding]	Mean % WT Binding (human CD33 A306S) [% WT binding]	Mean % WT Binding (human CD33 K283A) [% WT binding]	Mean % WT Binding (human CD33 L273A) [% WT binding]	Mean % WT Binding (human CD33 L338A) [% WT binding]	Mean % WT Binding (human CD33 P308A) [% WT binding]	Mean % WT Binding (human CD33 A329S) [% WT binding]	Mean % WT Binding (human CD33 A293S) [% WT binding]	Mean % WT Binding (human CD33 T331A) [% WT binding]	Mean % WT Binding (human CD33 A341S) [% WT binding]	Mean % WT Binding (human CD33 H339A) [% WT binding]	Mean % WT Binding (human CD33 L343A) [% WT binding]	Mean % WT Binding (human CD33 H310A) [% WT binding]	Mean % WT Binding (human CD33 P330A) [% WT binding]	Mean % WT Binding (human CD33 T284A) [% WT binding]	Mean % WT Binding (human CD33 H317A) [% WT binding]	Mean % WT Binding (human CD33 L271A) [% WT binding]	Mean % WT Binding (human CD33 T320A) [% WT binding]	further results
B1	103	102	94.6	99.2	88.6	104	103	103	92.8	101	90.9	89.6	99.3	101	94.9	97.9	105	95.2	106	100	Mean % WT Binding (human CD33 E337A): 105 % WT binding; Mean % WT Binding (human CD33 H300A): 101 % WT binding; Mean % WT Binding (human CD33 L316A): 90.5 % WT binding; Mean % WT Binding (human CD33 D298A): 106 % WT binding; Mean % WT Binding (human CD33 V294A): 104 % WT binding
B2	–	–	–	–	–	–	–	–	–	–	–	–	–	–	–	–	–	–	–	–	Mean % WT Binding (human CD33 W22E): 1.7 % WT binding; Mean % WT Binding (human CD33 V25L): 104 % WT binding; Mean % WT Binding (human CD33 P19K): 85.4 % WT binding; Mean % WT Binding (human CD33 F21I): 89.3 % WT binding; Mean % WT Binding (human CD33 V25S): 94.7 % WT binding; Mean % WT Binding (human CD33 F21V): 118 % WT binding; Mean % WT Binding (human CD33 W22N): 5.6 % WT binding; Mean % WT Binding (human CD33 F21S): 115 % WT binding; Mean % WT Binding (human CD33 L23M): 100 % WT binding; Mean % WT Binding (human CD33 N20Q): 97.2 % WT binding; Mean % WT Binding (human CD33 W22G): 8.1 % WT binding
B3	116	118	86.4	88.5	82.9	102	105	73.5	124	87.7	88.1	113	82.7	77.8	91.3	90.3	103	71.9	84.9	121	Mean % WT Binding (human CD33 E337A): 114 % WT binding; Mean % WT Binding (human CD33 H300A): 92.8 % WT binding; Mean % WT Binding (human CD33 L316A): 79.5 % WT binding; Mean % WT Binding (human CD33 D298A): 84.5 % WT binding; Mean % WT Binding (human CD33 V294A): 84.6 % WT binding
B4	–	–	–	–	–	–	–	–	–	–	–	–	–	–	–	–	–	–	–	–	Mean % WT Binding (human CD33 W22E): 111 % WT binding; Mean % WT Binding (human CD33 V25L): 94.9 % WT binding; Mean % WT Binding (human CD33 P19K): 86.2 % WT binding; Mean % WT Binding (human CD33 F21I): 95.7 % WT binding; Mean % WT Binding (human CD33 V25S): 107 % WT binding; Mean % WT Binding (human CD33 F21V): 104 % WT binding; Mean % WT Binding (human CD33 W22N): 106 % WT binding; Mean % WT Binding (human CD33 F21S): 112 % WT binding; Mean % WT Binding (human CD33 L23M): 90.7 % WT binding; Mean % WT Binding (human CD33 N20Q): 93.2 % WT binding; Mean % WT Binding (human CD33 W22G): 101 % WT binding
